Data from patent publication US20100229252, “MEGANUCLEASE VARIANTS CLEAVING A DNA TARGET SEQUENCE FROM THE HUMAN HEMOGLOBIN BETA GENE AND USES THEREOF” (CELLECTIS, published 2010).
Positions count from the first letter of the chain named.

B1: HBB6 (dsDNA)
DNA 1: CTGACTCCTGAGGAGAAGTCTG
DNA 2: CAGACTTCTCCTCAGGAGTCAG
B2: HBB8 (dsDNA)
DNA 1: CTGACTCCTGTGGAGAAGTCTG
DNA 2: CAGACTTCTCCACAGGAGTCAG

How the values were obtained:
Test in all cases: cell_activity; CHO extrachromosomal LacZ assay
[1] = molecular target: T1, I-CreI heterodimer HBB8.3_I3 / HBB8.4_C4 (Chlamydomonas reinhardtii, UniProt P05725;P05725 SEQ:1-167,SEQ:1-167)
T1 chain 1: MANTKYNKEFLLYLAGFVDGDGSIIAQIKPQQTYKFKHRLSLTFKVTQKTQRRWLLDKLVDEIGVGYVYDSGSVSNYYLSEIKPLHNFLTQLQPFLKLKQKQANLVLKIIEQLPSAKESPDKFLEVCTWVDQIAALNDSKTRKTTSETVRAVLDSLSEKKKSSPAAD
T1 chain 2: T1 chain 1 with G20S, Q31N, T33S, Y34V, S41Q, K45D, L55F, Y69A, N76K, Y78R

[2] = molecular target: T2, I-CreI heterodimer HBB8.3_K3 / HBB8.4_D4 (Chlamydomonas reinhardtii, UniProt P05725;P05725 SEQ:1-167,SEQ:1-167)
T2 chain 1: T1 chain 1 with G20S, L55F, Y78I
T2 chain 2: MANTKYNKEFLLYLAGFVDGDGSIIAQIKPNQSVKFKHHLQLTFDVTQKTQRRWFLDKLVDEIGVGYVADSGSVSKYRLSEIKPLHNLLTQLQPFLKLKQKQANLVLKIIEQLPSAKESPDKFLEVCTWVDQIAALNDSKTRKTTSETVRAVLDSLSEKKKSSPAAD

[3] = molecular target: T3, I-CreI heterodimer HBB8.3_E3 / HBB8.4_A4 (Chlamydomonas reinhardtii, UniProt P05725;P05725 SEQ:1-167,SEQ:1-167)
T3 chain 1: T1 chain 1 with G20S, L55F, V65I
T3 chain 2: T2 chain 2 with Q132R

[4] = molecular target: T4, I-CreI heterodimer HBB8.3_H3 / HBB8.4_D4 (Chlamydomonas reinhardtii, UniProt P05725;P05725 SEQ:1-167,SEQ:1-167)
T4 chain 1: T1 chain 1 with G20S, Q31N, T33S, Y34G, R39K, L55F, I133V
T4 chain 2: T2 chain 2

[5] = molecular target: T5, I-CreI heterodimer HBB8.3_I3 / HBB8.4_B4 (Chlamydomonas reinhardtii, UniProt P05725;P05725 SEQ:1-167,SEQ:1-167)
T5 chain 1: T1 chain 1
T5 chain 2: T2 chain 2 with G20S, V34T, H39R, L88F

[6] = molecular target: T6, I-CreI heterodimer HBB8.3_L3 / HBB8.4_A4 (Chlamydomonas reinhardtii, UniProt P05725;P05725 SEQ:1-167,SEQ:1-167)
T6 chain 1: T1 chain 1 with G20S, L55F, Y78Q
T6 chain 2: T2 chain 2 with Q132R

[7] = molecular target: T7, I-CreI heterodimer HBB8.3_B3 / HBB8.4_B4 (Chlamydomonas reinhardtii, UniProt P05725;P05725 SEQ:1-167,SEQ:1-167)
T7 chain 1: T1 chain 1 with L55F, V106A, L153Q
T7 chain 2: T2 chain 2 with G20S, V34T, H39R, L88F

Row | Binder | activity [1] [absorbance units] | activity [2] [absorbance units] | activity [3] [absorbance units] | activity [4] [absorbance units] | activity [5] [absorbance units] | activity [6] [absorbance units] | activity [7] [absorbance units]
1 | B1 | 2.36 | 1.63 | 2.04 | 1.84 | 1.88 | 1.96 | 1.21
2 | B2 | 2.42 | 1.93 | 2.52 | 2.1 | 2.26 | 2.32 | 2.29
